The record followed here is patent US6017886A, “Use of NDF peptide as growth factor for sensory epithelium” (Amgen Inc., priority 1999, dated 2000).

First the molecules themselves.
B1: GDNF: recombinant derived glial-derived neurotrophic factor (GDNF) (protein, UniProt P39905 78-211, looked up)
Glial cell line-derived …: SPDKQMAVLPRRERNRQAAAANPENSRGKGRRGQRGKNRGCVLTAIHLNVTDLGLGYETKEELIFRYCSGSCDAAETTYDKILKNLSRNRRLVSDKVGQACCRPIAFDDDLSFLDDNLVYHILRKHSAKRCGCI
B2: CNTF: recombinant derived ciliary-derived neurotrophic factor (CNTF) (protein, UniProt P26441 1-200, looked up)
Ciliary neurotrophic factor: MAFTEHSPLTPHRRDLCSRSIWLARKIRSDLTALTESYVKHQGLNKNINLDSADGMPVASTDQWSELTEAERLQENLQAYRTFHVLLARLLEDQQVHFTPTEGDFHQAIHTLLLQVAAFAYQIEELMILLEYKIPRNEADGMPINVGDGGLFEKKLWGLKVLQELSQWTVRSIHDLRFISSHQTGIPARGSHYIANNKKM
B3: KGF: recombinant derived keratinocyte growth factor (KGF) (protein, UniProt P21781 32-194, looked up)
Fibroblast growth factor 7: CNDMTPEQMATNVNCSSPERHTRSYDYMEGGDIRVRRLFCRTQWYLRIDKRGKVKGTQEMKNNYNIMEIRTVAVGIVAIKGVESEFYLAMNKEGKLYAKKECNEDCNFKELILENHYNTYASAKWTHNGGEMFVALNQKGIPVRGKKTKKEQKTAHFLPMAIT
B4: FGF-10: recombinant derived FGF-10 (protein, UniProt O15520 38-208, looked up)
Fibroblast growth factor 10: QALGQDMVSPEATNSSSSSFSSPSSAGRHVRSYNHLQGDVRWRKLFSFTKYFLKIEKNGKVSGTKKENCPYSILEITSVEIGVVAVKAINSNYYLAMNKKGKLYGSKEFNNDCKLKERIEENGYNTYASFNWQHNGRQMYVALNGKGAPRRGQKTRRKNTSAHFLPMVVHS

The subject of this assay is utricular epithelium from seven day-old rats. The assay is described as follows: BrdU incorporation (mitogenic activity) in primary culture of infant rat utricular sensory epithelium. The assay is classed as cell-based. The note with it: 50 ng/ml, seventy-two hours culture, infant (seven day-old) rat epithelium; control 50±7. The protocol:
Sensory edithelial cells obtained from utricles in the inner ear of both seven day-old (infant) rats and six week-old (adult) rats were isolated with the use of thermolysin treatment; see Corwin et al., Abstracts of the Association for Research in Otolaryngology, Volume 18, page 87 (1995). All edges were trimmed away and the central portion of the epithelium was cut into quarters. Epithelial cells from the infant rats were cultured in DMEM/F12 with 10% FBS (Gibco BRL, Grand Island, N.Y.), and 3 micrograms per milliliter (μg/ml) of mitosis tracer BrdU (Aldrich Chemicals, Milwaukee, Wis.) for seventy-two hours, with or without 50 nanograms per milliliter (ng/ml) of the peptide of SEQ ID NO: 1 or 50 ng/ml of recombinant derived FGF-10, recombinant derived FGF-16, recombinant derived ciliary-derived neurotrophic factor (CNTF), recombinant derived neurotrophic growth facor (NGF), recombinant derived glial-derived neurotrophic factor (GDNF), recombinant derived keratinocyte growth factor (KGF), or a control (no growth factor present). The experiment was ended by fixing in 4% paraformaldehyde for one hour.
After several washes, the explants were immunostained for calretinin (a vestibular organ hair cell marker) using rabbit antiserum (SWant Swiss Antibodies, Belinzona, Switzerland), diluted 1:10,000. The secondary antibody was goat anti-rabbit immunoglobulin conjugated to biotin, diluted 1:1,000. Extensive washes were followed by incubating the explants with egg white avidin conjugated to Cy3, diluted 1:1,000. The explants were fixed again with paraformaldehyde as described above, then processed for BrdU immunostaining (a measure of cell proliferation) using standard immunostaining protocols. The mouse monoclonal ant-BrdU antibody was obtained from Caltag Laboratories of San Franscisco, Calif. The secondary antibody, a goat anti-mouse conjugated to FITC, was obtained from Antibodies, Inc. of Davis, Calif.
A general note: Dividing cells build labelled thymidine or BrdU into new DNA.
For the molecule B1, the “number of BrdU-positive nuclei per piece of epithelium” value (from here on “number … per piece of epithelium”) was determined as 37±13.

As to B2, the “number … per piece of epithelium” value amounted to 23±3.

On to B3, for which the “number … per piece of epithelium” value came to 89±16.

For the molecule B4, the “number … per piece of epithelium” value is given as 11±4.
